These results are taken from PMC8811534.

The target in this data set is hAGO2 (human, UniProt Q9UKV8 1-859). As to the kind of experiment: EMSA. Background: Mobility shift assays separate free from complexed probe on a gel.
Chain of hAGO2 (Q9UKV8 whole entry): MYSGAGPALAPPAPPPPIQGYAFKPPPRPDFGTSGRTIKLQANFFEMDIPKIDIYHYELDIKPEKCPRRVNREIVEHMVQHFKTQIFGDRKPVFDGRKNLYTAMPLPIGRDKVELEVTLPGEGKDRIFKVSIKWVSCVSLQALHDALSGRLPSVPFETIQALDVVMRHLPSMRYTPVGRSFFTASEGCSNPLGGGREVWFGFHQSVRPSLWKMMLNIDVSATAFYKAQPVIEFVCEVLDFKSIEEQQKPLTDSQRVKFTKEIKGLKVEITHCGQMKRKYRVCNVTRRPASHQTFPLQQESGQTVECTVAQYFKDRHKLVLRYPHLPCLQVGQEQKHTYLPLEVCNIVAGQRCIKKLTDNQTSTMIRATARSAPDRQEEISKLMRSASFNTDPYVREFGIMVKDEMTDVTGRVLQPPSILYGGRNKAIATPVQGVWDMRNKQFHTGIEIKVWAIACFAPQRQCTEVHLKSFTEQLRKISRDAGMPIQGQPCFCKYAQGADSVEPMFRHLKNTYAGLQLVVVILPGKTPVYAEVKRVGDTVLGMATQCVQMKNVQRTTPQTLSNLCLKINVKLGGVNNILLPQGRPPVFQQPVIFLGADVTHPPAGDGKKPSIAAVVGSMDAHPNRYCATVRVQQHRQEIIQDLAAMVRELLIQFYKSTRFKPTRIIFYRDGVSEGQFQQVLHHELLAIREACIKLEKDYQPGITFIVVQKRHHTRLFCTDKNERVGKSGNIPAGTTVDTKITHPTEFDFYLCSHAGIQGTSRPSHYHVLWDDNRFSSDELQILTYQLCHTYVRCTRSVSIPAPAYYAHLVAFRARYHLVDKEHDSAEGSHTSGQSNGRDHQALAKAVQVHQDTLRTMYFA

B1: 5'Cy5-HIS-SARS2-1 DNA duplex (dsDNA)
DNA 1: AGCCTTTACCTCCATTAGCATAGACA
DNA 2: TGTCTATGCTAATGGAGGTAAAGGCT
Regarding B1, the binding result is “binds”.
